Experimental data: the supplement of paper PMC9732359
± gives the uncertainty stated by the source.

Assay: protein stability index of a GFP-peptide fusion (yeast GPS) (PSI 1-4); higher = more stable; sorted into four equal gates, so the index is relative within each strain
Outline: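 Each library plasmid carries Cherry plus GFP with a tiled 17-residue yeast protein peptide fused downstream, and the pooled library was carried in yeast. Mid-log cultures in leucine-free medium were sorted into four equal gates by GFP/Cherry ratio. Reads from Illumina sequencing of PCR-amplified plasmids from each gate were assigned to strains by barcodes. Per peptide, the protein stability index was computed as the summed products of gate read frequency and gate number.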

Sequence | protein stability index (doa10∆) | protein stability index (pdr5∆) | protein stability index (san1∆) | protein stability index (ubr1∆)
NRQTLMFTATMTPVIEK [PRP28] | 2.56 ± 0.061 | 2.62 ± 0.052 | 2.42 ± 0.052 | 2.44 ± 0.043
KDRIIDERTKEFEKKLQ [YIL149C/MLP2] | 3.23 ± 0.21 | 3.06 ± 0.19 | 2.94 ± 0.086 | 3.42 ± 0.1
PNSGTATTGGFGANQAT [YGR119C/NUP57] | 2.12 ± 0.084 | 2.33 ± 0.07 | 2.12 ± 0.091 | 2.14 ± 0.067
VVDTEETATLIMNELYR [SMC3] | 3.02 ± 0.086 | 3.17 ± 0.11 | 2.79 ± 0.1 | 3.03 ± 0.096
LTLIFYDVLHDVFTINP [YML103C/NUP188] | 1.7 ± 0.071 | 2.09 ± 0.051 | 2.3 ± 0.071 | 2.55 ± 0.054
KGEVVLVNIRTQTSKEQ [ITC1] | 2.4 ± 0.075 | 2.5 ± 0.15 | 2.58 ± 0.1 | 2.56 ± 0.095
NHSNNDIPTIADEHFWA [BRN1] | 3.38 ± 0.099 | 3.11 ± 0.077 | 3.2 ± 0.059 | 3.24 ± 0.036
TATTGKRKPAKSSSNRS [RPN4] | 2.68 ± 0.065 | 2.96 ± 0.07 | 2.68 ± 0.047 | 2.85 ± 0.047
NLFKINSIDVPIRINST [YMR129W/POM152] | 1.89 ± 0.044 | 2.2 ± 0.042 | 2.02 ± 0.058 | 2.17 ± 0.033
LLRNLESKMRQQEAKYR [YDL088C/ASM4] | 1.22 ± 0.058 | 1.61 ± 0.072 | 1.39 ± 0.14 | 1.36 ± 0.059
FPPPSVAARAEILRIHS [RPT6] | 1.72 ± 0.074 | 2.5 ± 0.085 | 1.54 ± 0.12 | 1.74 ± 0.046
SQIRLYAKFKRNTMMIQ [RGR1] | 2.44 ± 0.21 | 2.37 ± 0.11 | 2.14 ± 0.11 | 2.61 ± 0.13
EDAKYVINLKQIAKFVV [RPT1] | 1.61 ± 0.12 | 2.4 ± 0.2 | 1.8 ± 0.21 | 1.96 ± 0.1
KMSVTCNAQPITRSVMR [BRR2] | 2.47 ± 0.06 | 2.67 ± 0.057 | 2.72 ± 0.056 | 2.5 ± 0.037
NWYKSKKKAFTKYSAKY [RPL3] | 3.23 ± 0.16 | 3.25 ± 0.1 | 3.07 ± 0.079 | 3.01 ± 0.045
STLEPTLRKELEQIQVQ [YIL149C/MLP2] | 2.75 ± 0.096 | 3.01 ± 0.088 | 2.89 ± 0.062 | 2.3 ± 0.048
RAKAEAAEFRYKYGYDM [SCL1] | 2.85 ± 0.065 | 2.91 ± 0.063 | 2.71 ± 0.058 | 2.57 ± 0.047
EITGTSCLTFFQALDSE [ITC1] | 2.46 ± 0.086 | 2.78 ± 0.099 | 2.42 ± 0.1 | 1.82 ± 0.057
NVLVTMPVAPTMEVKSF [YMR129W/POM152] | 1.54 ± 0.068 | 1.62 ± 0.11 | 1.95 ± 0.11 | 1.46 ± 0.068
VFLFDIEKVDRENMICK [RRI2] | 3.17 ± 0.17 | 3.24 ± 0.14 | 2.88 ± 0.19 | 3.29 ± 0.12
IIERYIKSKADAWVSAA [PRP8] | 1.86 ± 0.082 | 1.88 ± 0.072 | 2.39 ± 0.11 | 2.09 ± 0.12
KKNSSRPMPPIRGPKRR [SMD3] | 2.23 ± 0.043 | 1.86 ± 0.037 | 2.14 ± 0.055 | 2.81 ± 0.036
IEGVVILKKNPDYREEE [RPN1] | 3.06 ± 0.08 | 3.09 ± 0.09 | 3.1 ± 0.075 | 3.1 ± 0.062
SGGGDSEVQRTMLELLN [RPT6] | 3.22 ± 0.18 | 2.42 ± 0.19 | – | 3.42 ± 0.066
ISTPIINAVLVNDNDER [RPO31] | 2.25 ± 0.085 | 2.22 ± 0.1 | 2.31 ± 0.12 | 2.21 ± 0.086

Sequence | protein stability index (doa10∆) | protein stability index (pdr5∆) | protein stability index (san1∆) | protein stability index (ubr1∆)
IRFVCLSNCLANARDFG [BRR2] | 2.09 ± 0.053 | 1.81 ± 0.052 | 1.72 ± 0.074 | 2.24 ± 0.044
ADNDGPRINNISAEDRA [SNF2] | 2.79 ± 0.15 | 3.16 ± 0.18 | 2.9 ± 0.1 | 1.52 ± 0.24
RPPNGIKNFKSLLLSSS [SSN2] | 1.51 ± 0.047 | 1.53 ± 0.047 | 1.83 ± 0.12 | 1.48 ± 0.037
LLPPIKIELIKNNLLIP [RPN12] | 2.16 ± 0.071 | 2.24 ± 0.062 | 1.75 ± 0.11 | 2.09 ± 0.044
PWNDDYPFLLSFLGEAK [YML103C/NUP188] | 1.42 ± 0.047 | 1.6 ± 0.061 | 1.66 ± 0.088 | 1.98 ± 0.046
KSKTSTGKERSKKRKLN [SNM1] | 3.1 ± 0.085 | 3.2 ± 0.097 | 3.644 ± 0.036 | 3.21 ± 0.09
LIEFQPSQGVHYKVPTD [MED6] | 2.6 ± 0.066 | 2.98 ± 0.061 | 2.93 ± 0.062 | 2.93 ± 0.046
TCSCCKKTVAGGAYTVS [RPL43A] | 1.65 ± 0.064 | 2.1 ± 0.11 | 1.76 ± 0.086 | 2.15 ± 0.066
PDDEKFTDENTIVLSLN [RPC40] | 3.46 ± 0.13 | 3.6 ± 0.085 | 3 ± 0.16 | 3.47 ± 0.087
KKHLKRLAAPHHWLLDK [RPS4A] | 2.78 ± 0.14 | 2.58 ± 0.078 | 3.18 ± 0.08 | 3.01 ± 0.072
NLQQDKTNFQDVILDYQ [REC8] | 3.07 ± 0.069 | 3.19 ± 0.05 | 3.4 ± 0.071 | 3.12 ± 0.041
VKNLSLMSCISVGTDPM [RPB2] | 1.88 ± 0.067 | 1.67 ± 0.061 | 2.48 ± 0.058 | 2.43 ± 0.063
ELKIRSKTENVRRLEAQ [RPT6] | 2.5 ± 0.16 | 2.53 ± 0.12 | 1.58 ± 0.27 | 2.53 ± 0.095
SLKCTDPYELKGEVVLV [ITC1] | 2.59 ± 0.2 | 3.1 ± 0.24 | 2.44 ± 0.2 | 2.96 ± 0.13
VETKLETKVDELRYQSH [DSN1] | 2.86 ± 0.088 | 3.22 ± 0.074 | 3.31 ± 0.058 | 3.08 ± 0.073
ASAPLCSPKLPVEKVQR [DLS1] | 2.78 ± 0.068 | 3.07 ± 0.067 | 2.92 ± 0.053 | 3.03 ± 0.049
QTRAKLLDNEIRIFRSE [RPT5] | 3.15 ± 0.12 | 3.37 ± 0.093 | 3.22 ± 0.051 | 2.95 ± 0.056
LIQEHDSRKNREQSSND [BRN1] | 3.38 ± 0.078 | 3.38 ± 0.06 | 3.19 ± 0.081 | 3.45 ± 0.094
KSKEDMKQLKFFKPLDY [SNU114] | 3.32 ± 0.14 | 3.08 ± 0.098 | 3.05 ± 0.16 | 3.29 ± 0.087
ENTKDNLVKEKEALQNN [SMC1] | 3.51 ± 0.12 | 3.26 ± 0.13 | 3.45 ± 0.13 | –
IQKQIETIQADLNHVTE [SMC2] | 2.96 ± 0.047 | 3.16 ± 0.053 | 2.96 ± 0.037 | 2.87 ± 0.039
PIFDYIHIDALELAGMD [SIR3] | 1.63 ± 0.053 | 1.79 ± 0.054 | 2.05 ± 0.064 | 2.17 ± 0.092
HHDYRSYYGIVCLMQIS [RRP6] | 2.03 ± 0.085 | 1.67 ± 0.067 | 1.32 ± 0.12 | 1.68 ± 0.076
DRMAKYLHIRDKILQLN [PGD1] | 2.32 ± 0.12 | 2.01 ± 0.079 | 1.76 ± 0.099 | 1.77 ± 0.049
LVTAGVAAAGITASTLL [CYT1] | 1.57 ± 0.058 | 1.76 ± 0.066 | 1.62 ± 0.098 | 1.67 ± 0.044
